{"source": "FireProtDB (doi:10.1111/j.1432-1033.1996.00516.x)", "conditions": "Aspergillus oryzae (strain ATCC 42149 / RIB 40), GdnHCl, Fluorescence, reversible: yes, whole UniProt chain shown", "key": {"[1]": {"conditions": "pH 5, 10 °C, Sodium acetate 0.1 M"}, "[2]": {"conditions": "pH 5, 25 °C, Sodium acetate 0.1 M"}}, "data": [{"protein": "Guanyl-specific ribonuclease T1 wild type, P00651 (protein) MMYSKLLTLTTLLLPTALALPSLVERACDYTCGSNCYSSSDVSTAQAAGYQLHEDGETVGSNSYPHKYNNYEGFDFSVSSPYYEWPILSSGDVYSGGSPGADRVVFNENNQLAGVITHTGASGNNFVECT", "values": [{"measurement": "denaturant m value", "setting": "[1]", "value": 2.49, "unit": "kcal/mol/M"}, {"measurement": "denaturant midpoint (higher = more stable)", "setting": "[1]", "value": 3.94, "unit": "M"}, {"measurement": "denaturant m value", "setting": "[2]", "value": 2.75, "unit": "kcal/mol/M"}, {"measurement": "denaturant midpoint (higher = more stable)", "setting": "[2]", "value": 3.63, "unit": "M"}, {"measurement": "denaturant m value", "setting": "pH 8, 10 °C, PIPES 0.1 M", "value": 2.63, "unit": "kcal/mol/M"}, {"measurement": "denaturant midpoint (higher = more stable)", "setting": "pH 8, 10 °C, PIPES 0.1 M", "value": 3.21, "unit": "M"}, {"measurement": "denaturant m value", "setting": "pH 8, 25 °C, PIPES 0.1 M", "value": 2.46, "unit": "kcal/mol/M"}, {"measurement": "denaturant midpoint (higher = more stable)", "setting": "pH 8, 25 °C, PIPES 0.1 M", "value": 2.4, "unit": "M"}]}]}
